{"source": "patent US20250011363A1", "about": "“OPTIMIZED SHORTENED PEPTIDE THAT BINDS TO ACETYLCHOLINE RECEPTOR, AND USE THEREOF” (SKINMED CO., LTD., priority 2021, published 2025)"}
{"target": "acetylcholine receptor (Homo sapiens, UniProt P02708)", "sequence (P02708 21-457)": "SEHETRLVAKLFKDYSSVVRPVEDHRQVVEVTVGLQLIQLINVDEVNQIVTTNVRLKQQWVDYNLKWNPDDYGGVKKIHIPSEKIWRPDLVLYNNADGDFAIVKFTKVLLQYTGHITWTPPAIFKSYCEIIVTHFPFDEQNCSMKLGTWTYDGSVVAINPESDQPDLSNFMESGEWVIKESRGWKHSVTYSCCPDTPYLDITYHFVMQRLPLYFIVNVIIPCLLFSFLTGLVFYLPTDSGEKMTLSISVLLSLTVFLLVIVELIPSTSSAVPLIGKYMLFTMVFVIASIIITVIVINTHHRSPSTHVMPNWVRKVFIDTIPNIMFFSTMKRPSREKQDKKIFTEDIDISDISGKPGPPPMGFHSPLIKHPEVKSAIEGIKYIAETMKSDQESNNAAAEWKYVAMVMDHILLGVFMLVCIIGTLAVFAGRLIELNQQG", "assay": "SPR binding affinity (RU) of optimized 5mer/6mer/7mer peptides, Examples 6-7", "conditions": "SPR, peptides at 10 μM; 6mer-2 Bottom sequence", "method_in_brief": "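Single-concentration screen: 10 μM peptide, SPR detection, binding expressed as RU.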", "units": {"Binding affinity": "Ru"}}
{"substance": "6mer-2-1025 (RCSHRR)", "Binding affinity": 39}
{"substance": "6mer-2-1026 (KENHRK)", "Binding affinity": 33}
{"substance": "6mer-2-1027 (KTPVKK)", "Binding affinity": 32}
{"substance": "6mer-2-1028 (KPEHRR)", "Binding affinity": 41}
{"substance": "6mer-2-1029 (KEEFKK)", "Binding affinity": 40}
{"substance": "6mer-2-1030 (RAPFKK)", "Binding affinity": 28}
{"substance": "6mer-2-1031 (RAWERK)", "Binding affinity": 33}
{"substance": "6mer-2-1032 (KETVKR)", "Binding affinity": 31}
{"substance": "6mer-2-1033 (KMDEKK)", "Binding affinity": 28}
{"substance": "6mer-2-1034 (KHSWRR)", "Binding affinity": 38}
{"substance": "6mer-2-1035 (RPPVKK)", "Binding affinity": 39}
{"substance": "6mer-2-1036 (KAKNKR)", "Binding affinity": 25}
{"substance": "6mer-2-1037 (KIHWKK)", "Binding affinity": 26}
{"substance": "6mer-2-1038 (KHWERK)", "Binding affinity": 33}
{"substance": "6mer-2-1039 (RNHFRK)", "Binding affinity": 26}
{"substance": "6mer-2-1040 (KYAWRK)", "Binding affinity": 36}
{"substance": "6mer-2-1041 (RACDKR)", "Binding affinity": 22}
{"substance": "6mer-2-1042 (KKMFRK)", "Binding affinity": 36}
{"substance": "6mer-2-1043 (RDKGKK)", "Binding affinity": 40}
{"substance": "6mer-2-1044 (KHTDKK)", "Binding affinity": 41}
{"substance": "6mer-2-1045 (RHAHRR)", "Binding affinity": 41}
{"substance": "6mer-2-1046 (RNSEKR)", "Binding affinity": 39}
{"substance": "6mer-2-1047 (RHDDKR)", "Binding affinity": 28}
{"substance": "6mer-2-1048 (RIHNRK)", "Binding affinity": 22}
{"substance": "6mer-2-1049 (KMSPRR)", "Binding affinity": 26}
{"substance": "6mer-2-1050 (KPPPRK)", "Binding affinity": 26}
{"substance": "6mer-2-1051 (RKHMRR)", "Binding affinity": 24}
{"substance": "6mer-2-1052 (KAPARK)", "Binding affinity": 23}
{"substance": "6mer-2-1053 (KEMGKK)", "Binding affinity": 34}
{"substance": "6mer-2-1054 (KKNKKR)", "Binding affinity": 43}
{"substance": "6mer-2-1055 (KPDFKR)", "Binding affinity": 30}
{"substance": "6mer-2-1056 (RNDERK)", "Binding affinity": 22}
{"substance": "6mer-2-1057 (RKKKKK)", "Binding affinity": 25}
{"substance": "6mer-2-1058 (RMPWKK)", "Binding affinity": 24}
{"substance": "6mer-2-1059 (RFADRR)", "Binding affinity": 35}
{"substance": "6mer-2-1060 (KTNERK)", "Binding affinity": 35}
{"substance": "6mer-2-1061 (KPPIKK)", "Binding affinity": 38}
{"substance": "6mer-2-1062 (KYNIRK)", "Binding affinity": 35}
{"substance": "6mer-2-1063 (RFNVRK)", "Binding affinity": 24}
{"substance": "6mer-2-1064 (RCMKRR)", "Binding affinity": 39}
{"substance": "6mer-2-1065 (RIANRK)", "Binding affinity": 27}
{"substance": "6mer-2-1066 (KPEHKR)", "Binding affinity": 29}
{"substance": "6mer-2-1067 (RDEIRK)", "Binding affinity": 29}
{"substance": "6mer-2-1068 (RIHVKK)", "Binding affinity": 26}
{"substance": "6mer-2-1069 (KHDMKK)", "Binding affinity": 36}
{"substance": "6mer-2-1070 (RPHVRR)", "Binding affinity": 31}
{"substance": "6mer-2-1071 (RTTWRK)", "Binding affinity": 25}
{"substance": "6mer-2-1072 (KPHWKR)", "Binding affinity": 29}
{"substance": "6mer-2-1073 (KYSWRK)", "Binding affinity": 24}
{"substance": "6mer-2-1074 (RPMGRK)", "Binding affinity": 33}
{"substance": "6mer-2-1075 (RHMERK)", "Binding affinity": 31}
{"substance": "6mer-2-1076 (RYCIRR)", "Binding affinity": 34}
{"substance": "6mer-2-1077 (KMTIKK)", "Binding affinity": 34}
{"substance": "6mer-2-1078 (KDTFRR)", "Binding affinity": 40}
{"substance": "6mer-2-1079 (KCNEKK)", "Binding affinity": 40}
{"substance": "6mer-2-1080 (RKHKKK)", "Binding affinity": 23}
{"substance": "6mer-2-1081 (KYKMRR)", "Binding affinity": 32}
{"substance": "6mer-2-1082 (KYTERR)", "Binding affinity": 31}
{"substance": "6mer-2-1083 (KTKGKR)", "Binding affinity": 39}
{"substance": "6mer-2-1084 (REKPRK)", "Binding affinity": 29}
{"substance": "6mer-2-1085 (RPEIRK)", "Binding affinity": 42}
{"substance": "6mer-2-1086 (KNDWRK)", "Binding affinity": 21}
{"substance": "6mer-2-1087 (KEEMRR)", "Binding affinity": 21}
{"substance": "6mer-2-1088 (RPCEKK)", "Binding affinity": 39}
{"substance": "6mer-2-1089 (RKTDRR)", "Binding affinity": 43}
{"substance": "6mer-2-1090 (KEMHKK)", "Binding affinity": 33}
{"substance": "6mer-2-1091 (RFDNKR)", "Binding affinity": 31}
{"substance": "6mer-2-1092 (RAKFRR)", "Binding affinity": 21}
{"substance": "6mer-2-1093 (KTTDKK)", "Binding affinity": 43}
{"substance": "6mer-2-1094 (KAWERK)", "Binding affinity": 43}
{"substance": "6mer-2-1095 (KYSMRR)", "Binding affinity": 39}
{"substance": "6mer-2-1096 (RANVKR)", "Binding affinity": 39}
{"substance": "6mer-2-1097 (RFWEKK)", "Binding affinity": 23}
{"substance": "6mer-2-1098 (KHPKRR)", "Binding affinity": 28}
{"substance": "6mer-2-1099 (REDWRR)", "Binding affinity": 21}
{"substance": "6mer-2-1100 (RTAPKK)", "Binding affinity": 24}
{"substance": "6mer-2-1101 (RTKMRR)", "Binding affinity": 38}
{"substance": "6mer-2-1102 (KHKGKR)", "Binding affinity": 32}
{"substance": "6mer-2-1103 (RDAWRK)", "Binding affinity": 42}
{"substance": "6mer-2-1104 (RYTKKR)", "Binding affinity": 38}
{"substance": "6mer-2-1105 (RNNAKK)", "Binding affinity": 28}
{"substance": "6mer-2-1106 (KDKVKR)", "Binding affinity": 28}
{"substance": "6mer-2-1107 (RAHERK)", "Binding affinity": 29}
{"substance": "6mer-2-1108 (KKKVRR)", "Binding affinity": 36}
{"substance": "6mer-2-1109 (KEDMRK)", "Binding affinity": 26}
{"substance": "6mer-2-1110 (RMTKKK)", "Binding affinity": 37}
{"substance": "6mer-2-1111 (REDEKK)", "Binding affinity": 23}
{"substance": "6mer-2-1112 (RASWRK)", "Binding affinity": 26}
{"substance": "6mer-2-1113 (KPNFRK)", "Binding affinity": 43}
{"substance": "6mer-2-1114 (RKKFRK)", "Binding affinity": 34}
{"substance": "6mer-2-1115 (KYSPRK)", "Binding affinity": 39}
{"substance": "6mer-2-1116 (KMEVKK)", "Binding affinity": 31}
{"substance": "6mer-2-1117 (RMHVKR)", "Binding affinity": 21}
{"substance": "6mer-2-1118 (RFDGRR)", "Binding affinity": 42}
{"substance": "6mer-2-1119 (KCTVRK)", "Binding affinity": 39}
{"substance": "6mer-2-1120 (RDMMKK)", "Binding affinity": 28}
{"substance": "6mer-2-1121 (KPSKRR)", "Binding affinity": 21}
{"substance": "6mer-2-1122 (RCNFKK)", "Binding affinity": 22}
{"substance": "6mer-2-1123 (RITARR)", "Binding affinity": 36}
{"substance": "6mer-2-1124 (RKTWRK)", "Binding affinity": 39}
{"substance": "6mer-2-1125 (RDAFKK)", "Binding affinity": 30}
{"substance": "6mer-2-1126 (RHEVRR)", "Binding affinity": 23}
{"substance": "6mer-2-1127 (KAAEKK)", "Binding affinity": 42}
{"substance": "6mer-2-1128 (KNCMRK)", "Binding affinity": 36}
{"substance": "6mer-2-1129 (RITGKR)", "Binding affinity": 42}
{"substance": "6mer-2-1130 (RHSFRK)", "Binding affinity": 29}
{"substance": "6mer-2-1131 (RTNAKR)", "Binding affinity": 26}
{"substance": "6mer-2-1132 (RPWERR)", "Binding affinity": 32}
{"substance": "6mer-2-1133 (KMKMKK)", "Binding affinity": 22}
{"substance": "6mer-2-1134 (KYENRK)", "Binding affinity": 30}
{"substance": "6mer-2-1135 (RANWKR)", "Binding affinity": 29}
{"substance": "6mer-2-1136 (KMKKKR)", "Binding affinity": 36}
{"substance": "6mer-2-1137 (RTDFKR)", "Binding affinity": 22}
{"substance": "6mer-2-1138 (KAHFKK)", "Binding affinity": 42}
{"substance": "6mer-2-1139 (KAKAKK)", "Binding affinity": 39}
{"substance": "6mer-2-1140 (KMNKKR)", "Binding affinity": 29}
{"substance": "6mer-2-1141 (KCTGKR)", "Binding affinity": 32}
{"substance": "6mer-2-1142 (KKAMKR)", "Binding affinity": 30}
{"substance": "6mer-2-1143 (KACIKK)", "Binding affinity": 42}
{"substance": "6mer-2-1144 (RFEDRK)", "Binding affinity": 39}
{"substance": "6mer-2-1145 (RIKNRR)", "Binding affinity": 23}
{"substance": "6mer-2-1146 (REWGRK)", "Binding affinity": 32}
{"substance": "6mer-2-1147 (KFMKKK)", "Binding affinity": 35}
{"substance": "6mer-2-1148 (KEKGKR)", "Binding affinity": 34}
{"substance": "6mer-2-1149 (KIDFRR)", "Binding affinity": 21}
{"substance": "6mer-2-1150 (KTDVKK)", "Binding affinity": 42}
{"substance": "6mer-2-1151 (RYPVRK)", "Binding affinity": 43}
{"substance": "6mer-2-1152 (RNWAKK)", "Binding affinity": 37}
{"substance": "6mer-2-1153 (KHKPKR)", "Binding affinity": 27}
{"substance": "6mer-2-1154 (RYEARR)", "Binding affinity": 30}
{"substance": "6mer-2-1155 (RNTNRK)", "Binding affinity": 25}
{"substance": "6mer-2-1156 (KMNARR)", "Binding affinity": 35}
{"substance": "6mer-2-1157 (RNTDRK)", "Binding affinity": 37}
{"substance": "6mer-2-1158 (RDNIRK)", "Binding affinity": 37}
{"substance": "6mer-2-1159 (KDMGKR)", "Binding affinity": 40}
{"substance": "6mer-2-1160 (RITVKK)", "Binding affinity": 23}
{"substance": "6mer-2-1161 (RHSFKK)", "Binding affinity": 27}
{"substance": "6mer-2-1162 (KMSERR)", "Binding affinity": 34}
{"substance": "6mer-2-1163 (KCHFKK)", "Binding affinity": 37}
{"substance": "6mer-2-1164 (RYNHKR)", "Binding affinity": 33}
{"substance": "6mer-2-1165 (RIKAKK)", "Binding affinity": 30}
{"substance": "6mer-2-1166 (KCSIKK)", "Binding affinity": 26}
{"substance": "6mer-2-1167 (RCAPKR)", "Binding affinity": 27}
{"substance": "6mer-2-1168 (KMKPKK)", "Binding affinity": 41}
{"substance": "6mer-2-1169 (KICERK)", "Binding affinity": 21}
{"substance": "6mer-2-1170 (KFTIRR)", "Binding affinity": 25}
{"substance": "6mer-2-1171 (KMPARR)", "Binding affinity": 40}
{"substance": "6mer-2-1172 (KNCERR)", "Binding affinity": 36}
{"substance": "6mer-2-1173 (KCCNKK)", "Binding affinity": 38}
{"substance": "6mer-2-1174 (RCEPRK)", "Binding affinity": 21}
{"substance": "6mer-2-1175 (RYSKRR)", "Binding affinity": 34}
{"substance": "6mer-2-1176 (RYTEKK)", "Binding affinity": 43}
{"substance": "6mer-2-1177 (RASEKR)", "Binding affinity": 41}
{"substance": "6mer-2-1178 (KTTVRK)", "Binding affinity": 30}
{"substance": "6mer-2-1179 (KACVKK)", "Binding affinity": 34}
{"substance": "6mer-2-1180 (RAANRR)", "Binding affinity": 34}
{"substance": "6mer-2-1181 (KACWKR)", "Binding affinity": 32}
{"substance": "6mer-2-1182 (RHNDKR)", "Binding affinity": 30}
